For test [1], the target named is T1, AtCDPK16 (G-AtCDPK16-6His) (Arabidopsis thaliana, UniProt Q7XJR9, S274A/S541A).
T1 construct: gene CPK16; recombinant from E. coli, N-terminal G (GST) and C-terminal 6His tags, about 100 kDa with tags
T1 sequence (Q7XJR9 1-571 S274A/S541A): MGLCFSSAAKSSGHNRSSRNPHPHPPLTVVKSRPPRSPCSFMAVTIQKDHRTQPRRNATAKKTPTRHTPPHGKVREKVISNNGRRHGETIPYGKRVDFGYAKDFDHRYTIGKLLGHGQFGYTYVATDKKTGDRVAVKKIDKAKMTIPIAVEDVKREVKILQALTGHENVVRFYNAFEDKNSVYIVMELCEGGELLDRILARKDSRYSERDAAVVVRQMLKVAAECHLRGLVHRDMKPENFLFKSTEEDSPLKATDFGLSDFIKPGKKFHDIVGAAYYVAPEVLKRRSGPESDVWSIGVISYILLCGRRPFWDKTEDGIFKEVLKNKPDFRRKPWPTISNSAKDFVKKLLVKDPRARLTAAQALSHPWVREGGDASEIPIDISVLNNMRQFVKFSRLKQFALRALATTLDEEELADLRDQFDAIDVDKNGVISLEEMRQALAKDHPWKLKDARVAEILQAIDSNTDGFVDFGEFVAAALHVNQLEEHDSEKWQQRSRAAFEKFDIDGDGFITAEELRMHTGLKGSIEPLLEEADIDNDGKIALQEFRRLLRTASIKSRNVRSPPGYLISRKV
Description: in vitro kinase assay, […] autoradiography. It is filed as biochemical. Particulars: 50 μM ATP spiked with [γ-32P]ATP, labelled compound; AtACS7 fusion protein and peptides as phosphoacceptors; room temperature, 15 min.

Test [2] deals with T2, AtCDPK16 (G-AtCDPK16-6His) (Arabidopsis thaliana, UniProt Q7XJR9).
T2 construct: gene CPK16; recombinant from E. coli, N-terminal G (GST) and C-terminal 6His tags, about 100 kDa with tags
T2 sequence (Q7XJR9 1-571): T1 sequence (Q7XJR9 1-571 S274A/S541A) with A274S, A541S
Description: in vitro kinase assay, […] autoradiography. The test is classed as biochemical. Particulars: 50 μM ATP spiked with [γ-32P]ATP, labelled compound; 6His-SUMO-AtACS7 as phosphoacceptor; Ca2+ dependent (shown with peptides P5-2 and P11-2); room temperature, 15 min.

Another test concerns the target 14-3-3ω (UniProt Q01525). Description: quartz crystal microbalance (QCM). Particulars: reference: untreated 6His-SUMO-ACS7; sites S216,T296,S299.
For test [3], the target named is T3, phosphorylated 6His-SUMO–ACS7 (phosphorylated by CDPK16 in vitro in advance) (Arabidopsis thaliana, UniProt Q9STR4 1-447, phosphorylated by CDPK16 in vitro; the sites that the paper identifies with fusion peptides are Ser216, Thr296 and Ser299).
T3 construct: 1-aminocyclopropane-1-carboxylate synthase 7 (AtACS7), Arabidopsis thaliana; the full-length ACS7 recombinant protein; source: E. coli, purified (Ni-NTA), then phosphorylated by CDPK16 in vitro
T3 sequence (looked up): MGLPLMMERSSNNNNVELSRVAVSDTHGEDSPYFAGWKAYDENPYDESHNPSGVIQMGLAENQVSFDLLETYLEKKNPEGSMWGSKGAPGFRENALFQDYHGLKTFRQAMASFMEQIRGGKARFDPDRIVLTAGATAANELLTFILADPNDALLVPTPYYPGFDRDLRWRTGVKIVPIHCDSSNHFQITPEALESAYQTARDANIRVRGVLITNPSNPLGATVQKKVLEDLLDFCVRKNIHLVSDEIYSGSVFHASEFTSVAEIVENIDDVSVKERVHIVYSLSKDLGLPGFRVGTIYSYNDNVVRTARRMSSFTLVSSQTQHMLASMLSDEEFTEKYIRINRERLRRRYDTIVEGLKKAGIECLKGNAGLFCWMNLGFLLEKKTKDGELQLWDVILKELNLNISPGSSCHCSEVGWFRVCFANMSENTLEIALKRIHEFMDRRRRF
Description: quartz crystal microbalance (QCM); AFFINIX QN μ, PBS buffer; results: G-14-3-3ω coated on the sensor and 6His-SUMO–ACS7 injected (the methods tell the reverse order). Particulars: both partners purified.

Test [4] addresses T4, 6His-SUMO–AtACS7 recombinant protein (Arabidopsis thaliana, UniProt Q9STR4 1-447).
T4 construct: 1-aminocyclopropane-1-carboxylate synthase 7 (AtACS7), Arabidopsis thaliana; called the full-length ACS7 recombinant protein; The printed name puts 6His and SUMO before ACS7; also called 6His-SUMO–ACS7; SUMO–ACS7; source: E. coli, purified (Ni-NTA)
T4 sequence (looked up): T3 sequence (looked up)
Described as above. Particulars: both partners purified.

Numbering of substitutions follows the chain as printed.

Turning to `Nc1ncnc2c1ncn2[C@@H]1O[C@H](COP(=O)(O)OP(=O)(O)OP(=O)(O)O)[C@@H](O)[C@H]1O` [ATP], the figures for the “in vitro kinase assay, 32P autoradiography” value in test [1] and in test [2] were “autophosphorylation of the mutated recombinant protein (G-CDPK16-6His MT) was greatly reduced” and “CDPK16 can phosphorylate the recombinant protein 6His-SUMO–AtACS7 in vitro”, respectively. Regarding “AtACS7 (ACS7, type III ACC synthase) (from UniProt Q9STR4) 6His-SUMO-ACS7 phosphorylated by CDPK16 in vitro”, the KD entry with 14-3-3ω was “same; reference 9.29±1.99×10–9”.

B1: G-14-3-3ω recombinant protein (GST-tagged 14-3-3ω) (natural protein, Arabidopsis, UniProt Q01525 1-259, looked up)
chain: MASGREEFVYMAKLAEQAERYEEMVEFMEKVSAAVDGDELTVEERNLLSVAYKNVIGARRASWRIISSIEQKEESRGNDDHVTAIREYRSKIETELSGICDGILKLLDSRLIPAAASGDSKVFYLKMKGDYHRYLAEFKTGQERKDAAEHTLAAYKSAQDIANAELAPTHPIRLGLALNFSVFYYEILNSPDRACNLAKQAFDEAIAELDTLGEESYKDSTLIMQLLRDNLTLWTSDMQDDAADEIKEAAAPKPTEEQQ
notes: 14-3-3ω (14-3-3 omega), Arabidopsis; The printed name puts G (GST) before 14-3-3ω; also called 14-3-3ω protein; source: E. coli, purified (GST beads, glutathione elution)
Take B1: the Kd in test [3] was determined as 5.05 nM; in test [4], 9.29 nM.

One may read the Kd as the concentration at which binding is half-saturated.

The record behind these values is article PMC3808318, “A type III ACC synthase, ACS7, is involved in root gravitropism in Arabidopsis thaliana” (Journal of Experimental Botany, 2013).
